Tests used:
Experiment in all cases: spectrophotometric oxidation assay, Michaelis-Menten fit
Format in all cases: biochemical, Stemphylium lucomagnoense
[1] = substrate: COc1cccc(OC)c1O; conditions: 50 mM sodium acetate, pH 5.0, 30 °C, free enzyme, pH 5.0
Text: (§1) spectrophotometric oxidation assay, Michaelis-Menten fit on SlLac2

[2] = substrate: CCn1c(=NN=c2sc3cc(S(=O)(=O)O)ccc3n2CC)sc2cc(S(=O)(=O)O)ccc21; conditions: 50 mM sodium acetate, pH 4.0, 30 °C, free enzyme, pH 4.0
Text: as §1

[3] = substrate: COc1cc(C=NN=Cc2cc(OC)c(O)c(OC)c2)cc(OC)c1O; conditions: 50 mM sodium acetate, pH 6.0, 30 °C, free enzyme, pH 6.0
Text: as §1

B1: SlLac2 (Stemphylium lucomagnoense) (protein)
chain: AVLPVELPNPAPFTPKRDGLEERQSPASCINVGHTPKTRHCWAQGFTSSTDMYTSWPNTGVIRSYNLRLENTTCNPDGAGSRVCLLINGRFLGPTIVANWGDTIRVTVRNNLQSNGTSIHWHGFRMLNKNIQDGVNGITECALAPGDFKTYQFQATEYGTTWYHSHFSHQYGDGVVGTVIVNGPATANYDEDLGVMPITDWYYNTAFQAASIAFQNGQAGLGPPVGDNILINGTAKNAAGGGAWNRVTIQAGKRYRLRLVNTAVDTNMLVNLDGHPFQVIATDFVPINPYNTTHLQIGIGQRYDVIINANQTAGNYWFRATADGLCQSRNAREGRAIFTYQGQPVADPTSTAPTVPFTACLDPVTTPKIVKNVPSSTFAAQAKNLPVAFGPVAANGNTVLWTINGTSMIIDPGKPTIKYVAENNNSFPQSYNVVKVPATSASTWTYWVIQQAVGAPPIAHPIHLHGHDSYILGAGDGQFNAATHFSQLRFTNPPRRDVSQLKGNGWLVIAYPTDNPGAWLMHCHIAFHVGMGLSVQFLERKQQIVLPATGSEWYNNCNNWAAYKAGNTDVWPQDDSGLKKRWPPLIEDGSVL
notes: full-length mature laccase (592 residues; precursor 613 with 21-residue signal peptide replaced by A. niger glucoamylase 24-residue prepropeptide, correctly cleaved off); codon-optimised synthetic gene; secreted from Aspergillus niger D15#26; no tag; N-glycosylated, about 75 kDa by SDS-PAGE
- Km [1]: 24 ± 3.9 µM
- kcat [1]: 0.0059 ± 0.0003 s⁻¹
- kcat/Km [1]: 240 M⁻¹ s⁻¹
- Km [2]: 20.6 ± 3.9 µM
- kcat [2]: 0.153 ± 0.0026 s⁻¹
- kcat/Km [2]: 7420 M⁻¹ s⁻¹
- Km [3]: 3.5 ± 0.57 µM
- kcat [3]: 0.0074 ± 0.0002 s⁻¹
- kcat/Km [3]: 2110 M⁻¹ s⁻¹
